Residue numbers refer to the chain shown, from its start.
Columns and labels:
TGF-beta1 (hTGF-beta1) [1] = molecular target: T1, TGF-beta1 (hTGF-beta1) (Homo sapiens, UniProt P01137 P01137:279-390); assay: filter; monophasic; settings: tags: R&D Systems; biotinylated form (NFTG0) used for BIAcore; chain copies: 2
TGF-beta1 (hTGF-beta1) [2] = molecular target: T1, TGF-beta1 (hTGF-beta1); assay: filter; biphasic; Kd1 14.0±6.4 nM; settings: tags: R&D Systems; biotinylated form (NFTG0) used for BIAcore; chain copies: 2
TGF-beta1 (hTGF-beta1) [3] = molecular target: T1, TGF-beta1 (hTGF-beta1); assay: cell_activity; MLEC assay; settings: tags: R&D Systems, biotinylated form (NFTG0) used for BIAcore, chain copies: 2
Method: Cells were plated at 10^5/mL in 96-well plates in MEM, 10 mM HEPES and 0.2% FBS. Following 4 hours of incubation at 37° C., when cells appeared to attach to the well surface, TGFβ1 was added at 2 pM with or without TGFβ1 ligands that ranged from 0.1 nM to 1 µM. In a second assay performed in order to determine cross-species reactivity, rather than using hTGFβ, a conditioned serum-free medium (CM) was used. CM was conditioned by culturing it in murine 3T3 fibroblast for 48 hours. Before use, this conditioned medium was heat treated at 80° C. for 10 minutes to activate the 3T3 cell derived TGFβ and then it was diluted to 50% and supplemented with 0.2% murine serum. In each assay, hTGFβ1 (or CM) was diluted appropriately in MEM and FBS (0.2% or murine serum) and the ligands were diluted in MEM. TGFβ1 (or CM) and ligand dilutions at 10× the final concentration were premixed at equal volumes and then were added to the cells. Following addition of the TGFβ1 (or CM)-ligand mixture, the cells were incubated for 16–18 hours prior to addition of ^3H-thymidine at 0.25 µCi per well and continued incubation for 7–8 additional hours. After incubation, the cells were washed and harvested with SKATRON filtering units and ^3H-thymidine incorporation in cellular DNA was quantitated by scintillation counting in Ecoscint. Data were plotted and analyzed as described in Park et al. (1990) J. Exp. Med. 171:1073) and Dower et al. (1984) J. Immunol.

TGF-beta1 (hTGF-beta1) [4] = molecular target: T1, TGF-beta1 (hTGF-beta1); assay: filter; biphasic; Kd1 4.2±2.2 nM; settings: tags: R&D Systems; biotinylated form (NFTG0) used for BIAcore; chain copies: 2
TGF-beta1 (hTGF-beta1) [5] = molecular target: T1, TGF-beta1 (hTGF-beta1); assay: filter; biphasic; Kd1 3.7±0.6 nM; settings: tags: R&D Systems; biotinylated form (NFTG0) used for BIAcore; chain copies: 2
TGF-beta1 (hTGF-beta1) [6] = molecular target: T1, TGF-beta1 (hTGF-beta1); assay: filter; monophasic, plateau about 10%; Table 3 and Table 4 sequences differ slightly; settings: tags: R&D Systems; biotinylated form (NFTG0) used for BIAcore; chain copies: 2
TGF-beta1 (hTGF-beta1) [7] = molecular target: T1, TGF-beta1 (hTGF-beta1); assay: filter; biphasic; Kd1 3.7±1.5 nM; settings: tags: R&D Systems; biotinylated form (NFTG0) used for BIAcore; chain copies: 2
TGF-beta1 (hTGF-beta1) [8] = molecular target: T1, TGF-beta1 (hTGF-beta1); assay: filter; biphasic; Kd1 2.82±1.7 nM; settings: tags: R&D Systems; biotinylated form (NFTG0) used for BIAcore; chain copies: 2
TGF-beta1 (hTGF-beta1) [9] = molecular target: T1, TGF-beta1 (hTGF-beta1); assay: filter; biphasic; Kd1 8.5±1.8 nM; settings: tags: R&D Systems; biotinylated form (NFTG0) used for BIAcore; chain copies: 2
TGF-beta1 (hTGF-beta1) [10] = molecular target: T1, TGF-beta1 (hTGF-beta1); assay: filter; biphasic; Kd1 4.4±1.6 nM; settings: tags: R&D Systems; biotinylated form (NFTG0) used for BIAcore; chain copies: 2
TGF-beta1 (hTGF-beta1) [11] = molecular target: T1, TGF-beta1 (hTGF-beta1); assay: filter; biphasic; Kd1 5.6±2.0 nM; settings: tags: R&D Systems; biotinylated form (NFTG0) used for BIAcore; chain copies: 2
TGF-beta1 (hTGF-beta1) [12] = molecular target: T1, TGF-beta1 (hTGF-beta1); assay: filter; biphasic; Kd1 13.5±4.2 nM; settings: tags: R&D Systems; biotinylated form (NFTG0) used for BIAcore; chain copies: 2
TGF-beta1 (hTGF-beta1) [13] = molecular target: T1, TGF-beta1 (hTGF-beta1); assay: filter; monophasic, plateau 8%; settings: tags: R&D Systems; biotinylated form (NFTG0) used for BIAcore; chain copies: 2
TGF-beta1 (hTGF-beta1) [14] = molecular target: T1, TGF-beta1 (hTGF-beta1); assay: filter; biphasic; Kd1 56.6 nM; P2 2.4%; settings: tags: R&D Systems; biotinylated form (NFTG0) used for BIAcore; chain copies: 2
TGF-beta1 (hTGF-beta1) [15] = molecular target: T1, TGF-beta1 (hTGF-beta1); assay: filter; biphasic; Kd1 4.05±1.5 nM; settings: tags: R&D Systems; biotinylated form (NFTG0) used for BIAcore; chain copies: 2
TGF-beta1 (hTGF-beta1) [16] = molecular target: T1, TGF-beta1 (hTGF-beta1); assay: filter; biphasic; Kd1 58.2 nM; P2 1.2%; settings: tags: R&D Systems; biotinylated form (NFTG0) used for BIAcore; chain copies: 2

T1 sequence (P01137 279-390, one chain of several): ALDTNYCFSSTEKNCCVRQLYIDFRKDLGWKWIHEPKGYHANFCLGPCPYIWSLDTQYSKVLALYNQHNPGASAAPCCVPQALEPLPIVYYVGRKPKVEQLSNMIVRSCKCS

B1: 30-08 (ssRNA)
RNA: GGGAGGACGAUGCGGCGGAAUUUUUGUUGAGCCGUAUGCCGCCAGACGACUCGCCCGA
modifications: 2'-F C and U
- Kd (TGF-beta1 (hTGF-beta1) [1]): 10.2 nM

B2: 40-32 (ssRNA)
RNA: GGGAGGACGAUGCGGUUAUGGGCGUCAACACCGCUAUUACAACUUUCGCCUCCAGACGACUCGCCCGA
modifications: 2'-F C and U
- Kd (TGF-beta1 (hTGF-beta1) [2]): 0.005 nM

B3: 40-19 (ssRNA)
RNA: GGGAGGACGAUGCGGUUAGCGCGAGUUCAACACCGCAUGUGAUUCUUUCGCCUCCCAGACGACUCGCCCGA
modifications: 2'-F C and U
- Ki (TGF-beta1 (hTGF-beta1) [3]): 28 nM
- Kd (TGF-beta1 (hTGF-beta1) [4]): 0.0037 nM

B4: 40-56 (ssRNA)
RNA: GGGAGGACGAUGCGGUUAGGGCGUCAACACCGCUAUUACAACUUUCGCCUCCCCAGACGACUCGCCCGA
modifications: 2'-F C and U
- Ki (TGF-beta1 (hTGF-beta1) [3]): 7.4 nM

B5: 40-13 (ssRNA)
RNA: GGGAGGACGAUGCGGAGCAAGGUUACGAGGUCGGACCCUGCUGCCAACAUCCUCCCCAGACGACUCGCCCGA
modifications: 2'-F C and U
- Kd (TGF-beta1 (hTGF-beta1) [1]): 15.4 nM

B6: 40-33 (ssRNA)
RNA: B5 RNA with A28C, G29C
modifications: 2'-F C and U
- Kd (TGF-beta1 (hTGF-beta1) [1]): 26.6 nM

B7: 40-44 (ssRNA)
RNA: B5 RNA with A16U, A28C, G29C
modifications: 2'-F C and U
- Kd (TGF-beta1 (hTGF-beta1) [1]): 11.1 nM

B8: 40-20 (ssRNA)
RNA: B5 RNA with A16U, G17A, A28C, G29C
modifications: 2'-F C and U
- Kd (TGF-beta1 (hTGF-beta1) [1]): 11.2 nM

B9: 40-40 (ssRNA)
RNA: B5 RNA with A16C, G17C, A28C, G29C, G40A, A49U
modifications: 2'-F C and U
- Kd (TGF-beta1 (hTGF-beta1) [1]): 18 nM

B10: 30-15 (ssRNA)
RNA: GGGAGGACGAUGCGGUUGACCGUUAAGACGGCAUGAUGUGGUCCGCAGACGACUCGCCCGA
modifications: 2'-F C and U
- Kd (TGF-beta1 (hTGF-beta1) [1]): 55.3 nM

B11: 30-22 (ssRNA)
RNA: B10 RNA with G18A, U24A, G40U, G41U
modifications: 2'-F C and U
- Kd (TGF-beta1 (hTGF-beta1) [1]): 2.47 nM

B12: 40-06 (ssRNA)
RNA: GGGAGGACGAUGCGGUUAGGGGCGUCAACACCGCUAUCAUAAUUUUCGCCUUCCCCAGACGACUCGCCCGA
modifications: 2'-F C and U
- Kd (TGF-beta1 (hTGF-beta1) [5]): 0.0016 nM

B13: 40-60 (ssRNA)
RNA: B12 RNA with G19U, C38U, U40C, A42G, U52C
modifications: 2'-F C and U
- Ki (TGF-beta1 (hTGF-beta1) [3]; label: 5'-biotin for BIAcore specificity, proposed double pseudoknot): 0.8 nM

B14: 20-05 (ssRNA)
RNA: GGGAGGACGAUGCGGUGUCUCUACCUUAGGUUGAUUCCUUCUACCGCAGACGACUCGCCCGA
modifications: 2'-F C and U
- Kd (TGF-beta1 (hTGF-beta1) [6]): 0.11 nM

B15: 40-77 (ssRNA)
RNA: GGGAGGACGAUGCGGUUAUGGGCGUCAACACCGCUAUUACAACUUUCGCCCCCCAGACGACUCGCCCGA
modifications: 2'-F C and U
- Kd (TGF-beta1 (hTGF-beta1) [7]): 0.00173 nM

B16: 30-12,24,21,40,41 (ssRNA)
RNA: GGGAGGACGAUGCGGUGUCUAUAGCCUGAUUUUUAAUCUCUGCCGCAGACGACUCGCCCGA
modifications: 2'-F C and U
- Kd (TGF-beta1 (hTGF-beta1) [8]): 0.0608 nM

B17: 40-54 (ssRNA)
RNA: GGGAGGACGAUGCGGUUAGGGGCGUCAACACCGCUAUCAUAACUUUCGCUUCCCCAGACGACUCGCCCGA
modifications: 2'-F C and U
- Kd (TGF-beta1 (hTGF-beta1) [9]): 0.00675 nM

B18: 40-58 (ssRNA)
RNA: B17 RNA with G19U, C38U, U40C, U50C
modifications: 2'-F C and U
- Ki (TGF-beta1 (hTGF-beta1) [3]): 0.9 nM
- Kd (TGF-beta1 (hTGF-beta1) [10]): 0.0053 nM

B19: 40-64 (ssRNA)
RNA: B17 RNA with C38U, U40C, C43U, U44C, C49U, U50C, C52U
modifications: 2'-F C and U
- Kd (TGF-beta1 (hTGF-beta1) [11]): 0.0031 nM

B20: 40-61,76 (ssRNA)
RNA: B17 RNA with C38U, U40C, C43U, U44C, C52U
modifications: 2'-F C and U
- Kd (TGF-beta1 (hTGF-beta1) [12]): 0.001 nM

B21: 40-16 (ssRNA)
RNA: B17 RNA with C38U, U40C, A42U, U50C
modifications: 2'-F C and U
- Ki (TGF-beta1 (hTGF-beta1) [3]): 0.6 nM

B22: 40-14 (ssRNA)
RNA: GGGAGGACGAUGCGGCAUUAUGGCGUCAACAUGCCGGUUUUCGAUUCUCAUUGUCCAGACGACUCGCCCGA
modifications: 2'-F C and U
- Ki (TGF-beta1 (hTGF-beta1) [3]): 3.9 nM

B23: 40-38 (ssRNA)
RNA: GGGAGGACGAUGCGGAGAUAAUUAUCAGCGGUGGACGGGGUGCCGGUACUGCCGCCAGACGACUCGCCCGA
modifications: 2'-F C and U
- Kd (TGF-beta1 (hTGF-beta1) [1]): 21.8 nM

B24: 40-55 (ssRNA)
RNA: GGGAGGACGAUGCGGUUAGGGGCGUCAACACCGCUAUUCAACCUUCGCUUCCCCAGACGACUCGCCCGA
modifications: 2'-F C and U
- Ki (TGF-beta1 (hTGF-beta1) [3]): 2.9 nM

B25: 40-08 (ssRNA)
RNA: GGGAGGACGAUGCGGCGCAAGGUUACGCCGUCGGACCCUGCUGCCAACAUCCUCCCAGACGACUCGCCCGA
modifications: 2'-F C and U
- Kd (TGF-beta1 (hTGF-beta1) [1]): 15.4 nM

B26: 40-36 (ssRNA)
RNA: GGGAGGACGAUGCGGGUCAAGGUUACGCCGUCGGACCCUACUGCCCCCAGACGACUCGCCCGA
modifications: 2'-F C and U
- Kd (TGF-beta1 (hTGF-beta1) [1]): 41.7 nM

B27: 30-34 (ssRNA)
RNA: GGGAGGACGAUGCGGUGUCUAUAGCCUUGAUUACAUCAUCUGCCUCAGACGACUCGCCCGA
modifications: 2'-F C and U
- Kd (TGF-beta1 (hTGF-beta1) [1]): 9.5 nM

B28: 40-29 (ssRNA)
RNA: GGGAGGACGAUGCGGGACCCUUUUCUGCGAUUCAACUCGUACGUCUUCUCACGUGCAGACGACUCGCCCGA
modifications: 2'-F C and U
- Kd (TGF-beta1 (hTGF-beta1) [1]): 10.9 nM

B29: 40-12 (ssRNA)
RNA: B28 RNA with U23G, C42G, C45U
modifications: 2'-F C and U
- Ki (TGF-beta1 (hTGF-beta1) [3]): 6.88 nM

B30: 20-04 (ssRNA)
RNA: GGGAGGACGAUGCGGUGUCUUUAGCUUAGGUGAUUCCUUCUGCCGCAGACGACUCGCCCGA
modifications: 2'-F C and U
- Kd (TGF-beta1 (hTGF-beta1) [13]): 0.2 nM

B31: 30-06 (ssRNA)
RNA: B30 RNA with U18C, U31C, G32U, A33U, U35G
modifications: 2'-F C and U
- Kd (TGF-beta1 (hTGF-beta1) [14]): 0.0741 nM

B32: 30-10 (ssRNA)
RNA: B30 RNA with U26C
modifications: 2'-F C and U
- Kd (TGF-beta1 (hTGF-beta1) [15]): 0.0755 nM

B33: 30-03 (ssRNA)
RNA: B30 RNA with U26C, U27C
modifications: 2'-F C and U
- Kd (TGF-beta1 (hTGF-beta1) [16]): 0.262 nM

B34: 30-43 (ssRNA)
RNA: B30 RNA with U26C
modifications: 2'-F C and U
- Kd (TGF-beta1 (hTGF-beta1) [1]): 50.5 nM

B35: 30-37 (ssRNA)
RNA: B30 RNA with A23G, U26C
modifications: 2'-F C and U
- Kd (TGF-beta1 (hTGF-beta1) [1]): 2.65 nM
